Measurements published in paper PMC7293020.

Tests used:
EcSSB = EcSSB (Escherichia coli, UniProt P0AGE0 1-178); test: MST
[1] = molecular target: EcSSB and the SSB-IDL fusions; test: ITC

Chain of EcSSB (P0AGE0 whole entry, the tested form may be a part): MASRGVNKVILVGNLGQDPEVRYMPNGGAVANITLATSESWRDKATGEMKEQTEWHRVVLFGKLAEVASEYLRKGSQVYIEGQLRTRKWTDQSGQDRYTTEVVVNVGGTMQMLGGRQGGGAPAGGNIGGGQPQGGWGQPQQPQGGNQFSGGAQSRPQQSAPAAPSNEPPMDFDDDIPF

Binder	Kd (EcSSB)	Kd [1]
TTTTTTTTTTTTTTTTTTTTTTTTTTTTTTTTTTT (ssDNA) [Cy5-dT35]	1.23 ± 0.29 nM	
Escherichia coli exonuclease I (ExoI) (enzyme) MMNDGKQQSTFLFHDYETFGTHPALDRPAQFAAIRTDSEFNVIGEPEVFYCKPADDYLPQPGAVLITGITPQEARAKGENEAAFAARIHSLFTVPKTCILGYNNVRFDDEVTRNIFYRNFYDPYAWSWQHDNSRWDLLDVMRACYALRPEGINWPENDDGLPSFRLEHLTKANGIEHSNAHDAMADVYATIAMAKLVKTRQPRLFDYLFTHRNKHKLMALIDVPQMKPLVHVSGMFGAWRGNTSWVAPLAWHPENRNAVIMVDLAGDISPLLELDSDTLRERLYTAKTDLGDNAAVPVKLVHINKCPVLAQANTLRPEDADRLGINRQHCLDNLKILRENPQVREKVVAIFAEAEPFTPSDNVDAQLYNGFFSDADRAAMKIVLETEPRNLPALDITFVDKRIEKLLFNYRARNFPGTLDYAEQQRWLEHRRQVFTPEFLQGYADELQMLVQQYADDKEKVALLKALWQYAEEIV		4460 to 5780 nM
